This note sets out measurements from patent US10946092 (BEIJING MABWORKS BIOTECH, dated 2021).

In assay [1] the target is T1, human LAG3 expressed on HEK293A cells (human, UniProt P18627 23-525).
T1 construct: whole, on cells; also called HEK293A/human LAG3
T1 sequence (looked up): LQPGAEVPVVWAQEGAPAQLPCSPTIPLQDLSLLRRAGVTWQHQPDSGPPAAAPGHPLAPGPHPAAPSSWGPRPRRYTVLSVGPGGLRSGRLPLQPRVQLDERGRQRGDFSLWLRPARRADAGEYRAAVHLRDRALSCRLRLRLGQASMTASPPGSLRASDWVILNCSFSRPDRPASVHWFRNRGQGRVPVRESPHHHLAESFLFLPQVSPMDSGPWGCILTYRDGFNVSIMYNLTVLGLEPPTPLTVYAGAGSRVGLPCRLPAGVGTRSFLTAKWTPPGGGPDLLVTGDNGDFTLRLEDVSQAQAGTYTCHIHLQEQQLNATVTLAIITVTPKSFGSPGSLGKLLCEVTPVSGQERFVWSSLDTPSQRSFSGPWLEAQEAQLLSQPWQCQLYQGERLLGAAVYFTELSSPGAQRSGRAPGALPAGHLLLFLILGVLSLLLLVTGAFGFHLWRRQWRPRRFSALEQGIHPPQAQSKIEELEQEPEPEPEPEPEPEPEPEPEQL
Description: FACS on HEK293A cells expressing human LAG3.

Assay [2] has as its target T2, hLAG-3-hIg fusion protein (human LAG-3 extracellular domain fused to human Fc); Sino Biological, Cat #: … (human, UniProt P18627 23-450).
T2 construct: extracellular domain; Bought protein; also called LAG3 fusion protein; human LAG3(ECD)-hFc; not shown: human Fc
T2 sequence (looked up): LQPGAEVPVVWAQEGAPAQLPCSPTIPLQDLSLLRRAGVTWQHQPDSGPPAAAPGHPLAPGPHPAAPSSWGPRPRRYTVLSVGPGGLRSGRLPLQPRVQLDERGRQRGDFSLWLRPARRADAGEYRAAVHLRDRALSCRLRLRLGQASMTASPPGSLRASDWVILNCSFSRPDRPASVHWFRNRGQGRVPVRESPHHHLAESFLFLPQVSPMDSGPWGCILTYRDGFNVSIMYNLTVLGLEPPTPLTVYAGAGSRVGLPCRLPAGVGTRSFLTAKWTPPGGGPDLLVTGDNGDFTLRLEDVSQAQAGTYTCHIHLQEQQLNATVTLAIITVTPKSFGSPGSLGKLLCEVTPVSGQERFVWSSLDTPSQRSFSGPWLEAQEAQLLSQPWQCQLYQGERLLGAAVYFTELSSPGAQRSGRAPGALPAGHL
Nature of the assay: FACS blocking assay: hLAG-3-hIg preincubated with the antibody, then binding to MHC II on Daudi cells.

In assay [3] the target is T3, recombinant human LAG3(ECD)-his (Sino Biological, Cat #: 16498-H08H) (human, UniProt P18627 23-450).
T3 construct: extracellular domain; Bought protein; not shown: his tag
T3 sequence (looked up): T2 sequence (looked up)
Description: SPR (BIAcore 8K), human LAG3(ECD)-his coupled to chip, antibody injected, 1:1 Langmuir. The method, then: (§1) Serially diluted antibodies at concentrations ranging from 0.3 μM to 10 μM were injected into the SPR running buffer (HBS-EP buffer, pH7.4, GE Life Sciences; US; Cat #: BR-1006-69) at 30 μL/minute. The binding capacities were calculated with the RUs of blank controls subtracted. The association rate (Ka) and dissociation rate (Kd) were calculated using the one-to-one Langmuir binding model (BIA Evaluation Software, GE Life Sciences). The equilibrium dissociation constant K_D was calculated as the kd/ka ratio.
On the technique in general: SPR reads the build-up and loss of mass on a sensor chip optically.

Assay [4] deals with T4, monkey LAG3(ECD)-mFc protein (ACRO, Cat #: LA3-052A0) (monkey).
T4 construct: extracellular domain; Bought protein
Nature of the assay: SPR (BIAcore 8K), monkey LAG3(ECD)-mFc coupled to chip, antibody injected, 1:1 Langmuir. As to the method:
as §1

A further assay addresses T5, Human PBMC.
T5 chain: T1 sequence (looked up)
Description: FACS on activated human PBMC. The method, then:
(§2) Briefly, 10^5 HEK293A cells in 50 μl PBS buffers were seeded into each well of the 96-well plates and then added with 50 μl of serially diluted anti-LAG3 antibodies (5-fold dilution, starting from 40 μg/ml). After incubated at 4° C. for 1 hour, plates were washed 3 times with PBST. Then, an APC coupled Goat Anti-Mouse IgG (BioLegend, US, Cat #: 405308) diluted 500× was added to the plates. After incubation at 4° C. for 1 hour, the plates were washed with PBS for 3 times and then cell fluorescence was monitored using a FACS machine (BD).
(§3) Further, the binding activities of the two antibodies to actived human PBMCs were investigated by FACS. Briefly, human PBMCs were collected by density gradient centrifugation and then re-suspended in the complete medium (RPMI medium+10% FBS+ human IL-2 (20 IU/ml, R&D, Cat #: 202-IL)+ Dynabeads™ Human T-Activator CD3/CD28 (Gibco, Cat #: 11132D)) at 37° C. under 5% CO_2 in a humidified incubator for 2 days to get activated T cells. The cells were then collected and tested by FACS as described in Example 6.

Assay [5] has as its target T3, recombinant human LAG3(ECD)-his (Sino …). Description: SPR (BIAcore 8K), human LAG3(ECD)-his coupled to chip, antibody injected, 1:1 Langmuir; printed a second time as 'Ka values', read as Kd. The method, then: as §1
Assay [6] has as its target T1, human LAG3 expressed on HEK293A cells. Nature of the assay: FACS on HEK293A cells expressing human LAG3. This is another data set of the same source.
For assay [7], the target named is T2, hLAG-3-hIg fusion protein (human LAG-3 …). Nature of the assay: FACS blocking assay: hLAG-3-hIg preincubated with the antibody, then binding to MHC II on Daudi cells. This is another data set of the same source.
Assay [8] deals with T3, recombinant human LAG3(ECD)-his (Sino …). Nature of the assay: ELISA on coated human LAG3(ECD)-his. As to the method:
The wells were blocked with 200 µl of blocking buffer (PBS containing 1% BSA, 1% goat serum, and 0.05% Tween 20) for 2 hours at room temperature, and then 100 µl of serially diluted anti-LAG3 antibodies (starting from 40 µg/ml) were added to each well and incubated for 1 hour at RT. Plates were washed for 3 times with PBST (PBS+0.05% Tween 20), added with Goat-anti-mouse IgG-HRP (Sigma, US, Cat #: A9309-1 ml) diluted 5000×, and incubated for 1 hour at RT. Plates were developed with freshly prepared Ultra-TMB (BD, US, Cat #:555214) for 5 minutes at RT. Absorbance was read on a SpectraMaxR i3X (Molecular Devies, US) at 450 nm.
as §3

For assay [9], the target named is T6, monkey (rhesus) LAG3 expressed on HEK293A cells (monkey (rhesus), UniProt A0A5F8A874 23-533).
T6 construct: whole, on cells; also called HEK293A/rh LAG3
T6 sequence: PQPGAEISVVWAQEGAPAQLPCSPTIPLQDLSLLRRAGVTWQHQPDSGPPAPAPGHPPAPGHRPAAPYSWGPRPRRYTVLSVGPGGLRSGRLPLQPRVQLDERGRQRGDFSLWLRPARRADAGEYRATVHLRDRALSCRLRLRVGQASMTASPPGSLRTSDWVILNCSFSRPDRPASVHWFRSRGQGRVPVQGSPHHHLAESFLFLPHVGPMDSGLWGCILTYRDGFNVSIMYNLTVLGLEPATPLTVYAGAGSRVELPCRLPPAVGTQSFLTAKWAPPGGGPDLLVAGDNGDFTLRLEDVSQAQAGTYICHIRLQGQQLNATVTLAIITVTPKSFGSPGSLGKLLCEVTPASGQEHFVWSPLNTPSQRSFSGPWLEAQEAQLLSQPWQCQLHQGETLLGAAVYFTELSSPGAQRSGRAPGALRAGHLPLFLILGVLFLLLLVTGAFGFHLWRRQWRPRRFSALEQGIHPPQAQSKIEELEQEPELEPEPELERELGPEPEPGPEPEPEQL
Description: FACS on HEK293A cells expressing rhesus LAG3. The method, then: as §2, §3

Residue numbers refer to the chain shown, from its start. In names and notes the source's numbering stands. Like-named read-outs stand apart in the source and are kept apart here.

B1: humanized antibody 134G10H2L2 (antibody, human IgG4 S228P, kappa, V domains shown)
VH: EVQLVESGGGLVKPGGSLRLSCAASGFTFSSFGMSWVRQAPGKRLEWVSIISSGGTYTFYPDILKGRFTISRDNAKNSLYLQMNSLRAEDTAVYYCARVYSDYDGRFDYWGQGTLVTVSS
VL: DIVMTQSPSSLAVSLGERATINCKSSQSLLNSGNQKNYLAWYQQKPGQPPKLLIYGASTRESGVPDRFSGSGSGTDFTLTISSLQAEDVAVYYCQNDHSYPLTFGAGTKLEIKR
notes: Human IgG4 (S228P)/kappa
In the case of B1, the binding result in assay [1] and in assay [2] was “binds” in each case.

B2: humanized antibody 134G10H3L3 (antibody, human IgG4 S228P, kappa, V domains shown)
VH: B1 VH with S49G
VL: B1 VL with S69T
notes: Human IgG4 (S228P)/kappa
In the case of B2, the binding result in [1] and in [2] was “binds” in each case.

B3: humanized antibody 134G10H3L2 (antibody, human IgG4 S228P, kappa, V domains shown)
VH: B1 VH with S49G
VL: B1 VL
notes: Human IgG4 (S228P)/kappa; also called 134G10H3VL2
Turning to B3, the binding result in assay [1] and in assay [2] was “binds” throughout.

B4: humanized antibody 134G10H2L3 (antibody, human IgG4 S228P, kappa, V domains shown)
VH: B1 VH
VL: B1 VL with S69T
notes: Human IgG4 (S228P)/kappa
Take B4: the Kd in [3] came out at 0.262 nM; in [4] it was 0.000201 nM. Besides, the on-rate (kon) in assay [3] was 166000 M⁻¹ s⁻¹.

B5: humanized antibody 134G10H0L0 (antibody, human IgG4 S228P, kappa, V domains shown)
VH: B1 VH with R44G
VL: B1 VL with S9D, A106Q
notes: Human IgG4 (S228P)/kappa
B5: the binding result in [1] and in assay [2] was “binds” in each case.

B6: humanized antibody 101F4H2L2 (antibody, human IgG4 S228P, kappa, V domains shown)
VH: QVQLVQSGAEVKKPGASVKVSCKVSGYTFTDYEMHWVRQAPGKGLEWMGAIDPETGGIVYNQRFKGRVTLTADTSTDTAYMELSSLRSEDTAVYYCATAGWGYWGQGTTVTVSS
VL: DIQMTQSPSSLSASVGDRVTITCKASQDINSYLSWYQQKPGKAPKLLIYRANRLLDGVPSRFSGSGSGQDYTLTISSLQPEDFATYYCLQYDEFPFTFGQGTKLEIKR
notes: Human IgG4 (S228P)/kappa
Turning to B6, the “EC50 (read off the curve)” value with Human PBMC is around 0.1 µg/mL. In [3], the Kd was determined as 414 nM and the association rate constant (kon) was 960000 M⁻¹ s⁻¹. In assay [4], this molecule had a Kd of 0.488 nM. Moreover, the koff in [5] stood at 0.398 s⁻¹.

B7: humanized antibody 101F4H0L0 (antibody, human IgG4 S228P, kappa, V domains shown)
VH: B6 VH with L70M, A72E
VL: B6 VL with Q69T, Y71F
notes: Human IgG4 (S228P)/kappa
In the case of B7, the binding result in assay [6] and in assay [7] was “binds” in each case.

B8: humanized antibody 101F4H3L2 (antibody, human IgG4 S228P, kappa, V domains shown)
VH: B6 VH with V24A, V68A, T98G
VL: B6 VL
notes: Human IgG4 (S228P)/kappa
On to B8, for which the binding result in [6] and in assay [7] was “binds” each time.

B9: humanized antibody 101F4H2L3 (antibody, human IgG4 S228P, kappa, V domains shown)
VH: B6 VH
VL: B6 VL with M4I, Y36F
notes: Human IgG4 (S228P)/kappa
Turning to B9, the binding result in assay [6] and in assay [7] was “binds” in each case.

B10: humanized (with affinity maturation) antibody 101F4H2L2-8 (antibody, human IgG4 S228P, kappa, V domains shown)
VH: B6 VH with A99T, G102N, Y103D
VL: B6 VL with L89Q
Regarding B10, the “EC50 (read off the curve)” value in the assay with Human PBMC was around 0.02 µg/mL; in assay [8], around 1 µg/mL; in [9], around 0.8 µg/mL. Also, the Kd in assay [3] turned out to be 2.05 nM; in assay [4] it was 0.98 nM. Also, in assay [3], the kon was 104000 M⁻¹ s⁻¹. In addition, the koff in [5] came out at 0.000214 s⁻¹.

B11: humanized antibody 101F4H3L3 (antibody, human IgG4 S228P, kappa, V domains shown)
VH: B6 VH with V24A, V68A, T98G
VL: B6 VL with M4I, Y36F
notes: Human IgG4 (S228P)/kappa
As for B11, the binding result in [6] and in [7] was “binds” throughout.

Usually Kd stands for the constant that tells how readily two partners part at equilibrium. What is called kon is the second-order rate constant of association. By EC50 (read off the curve) is commonly meant the concentration needed to bring the measured effect to its halfway point. As usually defined, the koff is the rate constant with which the complex falls apart.
